Source: patent EP4653461A1 (DE NOVO BIOTHERAPEUTICS CO., LTD., dated 2025)
Like-named read-outs stand apart in the source and are kept apart here. Values belong to the binder of their own block, whether it stands above or below them.

Tests used:
[1] = target: T1, 6506GJ130-1A: Human NKP46 Recombinant Protein (His) (human, UniProt O76036 22-258, limits assumed); test: SPR, Biacore 8K, antibody captured on Protein A chip, NKp46 as analyte
T1 construct: also called human NKp46 protein; not shown: His tag
T1 sequence (O76036 22-258 limits assumed): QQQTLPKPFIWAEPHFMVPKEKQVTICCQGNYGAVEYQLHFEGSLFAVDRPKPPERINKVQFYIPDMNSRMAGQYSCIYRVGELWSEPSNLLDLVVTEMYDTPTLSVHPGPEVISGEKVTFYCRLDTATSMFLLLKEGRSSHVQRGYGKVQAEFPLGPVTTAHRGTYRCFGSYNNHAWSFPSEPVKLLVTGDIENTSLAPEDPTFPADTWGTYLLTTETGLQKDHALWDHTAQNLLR

[2] = target: T1, 6506GJ130-1A: Human NKP46 Recombinant …; test: competition ELISA, NKp46-His coated; competitor 1-2 at 20 ug/ml
[3] = target: T1, 6506GJ130-1A: Human NKP46 Recombinant …; test: competition ELISA, NKp46-His coated; no competitor (Control)
[4] = target: T1, 6506GJ130-1A: Human NKP46 Recombinant …; test: competition ELISA, NKp46-His coated; competitor 2-3 at 20 ug/ml
[5] = target: T1, 6506GJ130-1A: Human NKP46 Recombinant …; test: competition ELISA, NKp46-His coated; competitor 2-2 at 20 ug/ml
[6] = target: T1, 6506GJ130-1A: Human NKP46 Recombinant …; test: competition ELISA, NKp46-His coated; competitor 2-7 at 20 ug/ml
[7] = target: T1, 6506GJ130-1A: Human NKP46 Recombinant …; test: competition ELISA, NKp46-His coated; competitor 2-5 at 20 ug/ml
[8] = target: T1, 6506GJ130-1A: Human NKP46 Recombinant …; test: competition ELISA, NKp46-His coated; competitor 1-10 at 20 ug/ml
[9] = target: T1, 6506GJ130-1A: Human NKP46 Recombinant …; test: SPR, Biacore 8K, antibody captured on Protein A chip, NKp46 as analyte; remark: listed apart in the source
[10] = target: T1, 6506GJ130-1A: Human NKP46 Recombinant …; test: competition ELISA, NKp46-His coated; competitor 1-4-2 at 20 ug/ml
[11] = target: T1, 6506GJ130-1A: Human NKP46 Recombinant …; test: competition ELISA, NKp46-His coated; competitor 2-10 at 20 ug/ml
[12] = target: T1, 6506GJ130-1A: Human NKP46 Recombinant …; test: competition ELISA, NKp46-His coated; competitor 1-8 at 20 ug/ml
[13] = target: T1, 6506GJ130-1A: Human NKP46 Recombinant …; test: competition ELISA, NKp46-His coated; competitor 2-1 at 20 ug/ml
[14] = target: T1, 6506GJ130-1A: Human NKP46 Recombinant …; test: SPR, Biacore 8K; reference 1-2
[15] = target: T1, 6506GJ130-1A: Human NKP46 Recombinant …; test: SPR, Biacore 8K; reference 2-3
[16] = target: T1, 6506GJ130-1A: Human NKP46 Recombinant …; test: SPR, Biacore 8K; reference 2-5

Kd [1]: 0.24 to 30 nM | ELISA signal [2]: 1.24 | ELISA signal [3]: 1.38 | ELISA signal [4]: 0.105 | ELISA signal [5]: 0.16 | ELISA signal [6]: 0.2 | ELISA signal [7]: 1.43 | ELISA signal [8]: 0.408 | Kd [9]: 0.244 nM | koff [9]: 0.000136 s⁻¹ | kon [9]: 555000 M⁻¹ s⁻¹ | ELISA signal [10]: 1.09 | ELISA signal [11]: 0.173 | ELISA signal [12]: 1.43 | ELISA signal [13]: 0.649
B1: 28E10B12 (2-3) (antibody, IgG4, V domains shown)
VH: QVQLQQPGAELVKPGASVKLSCKASGYTFTSYWMNWVKQRPGQGLEWIGMIHPNSDITNYNEKFKSQATLTVDKSSSTAYMQLSSLTSEDSAVYYCARHGRFDYWGQGTTLTVSS
VL: DIQMTQSPSSLSASLGERVTLTCRASQDIGSSLNWLQQEPDGTIKRLIYATSSLDSGVPKRFSGSRSGSDYSLTISSLESEDFVDYYCLQYASSPFTFGSGTKLEIK
notes: Hybridoma clone; made as mouse/human chimeric IgG4

Kd [1]: 0.42 to 8.7 nM | fold change of KD against the unhumanized antibody [14]: ≤ 2 fold | Kd [9]: 8.66 nM | koff [9]: 0.000118 s⁻¹ | kon [9]: 13700 M⁻¹ s⁻¹
B2: Hu 1-2 (antibody, V domains shown)
VH: QVQLVQSGAEVKKPGASVKVSCKASGYTFTDYYLNWVRQAPGQGLEWIGDIDPHNAGTSYNQKFKDRVTMTVDTSTSTVYMELSSLRSEDTAVYYCARFPIYYSGSSPMDYWGQGTLVTVSS
VL: DIQMTQSPSSLSASVGDRVTITCRTNENIFSYLAWYQQKPGKAPKLLIYNAKTLAEGVPSRFSGSGSGTDFTLTISSLQPEDFATYYCQHHYGTPYTFGGGTKLEIK
notes: Humanized form of 1-2; also called humanized 1-2

Kd [1]: 0.42 to 8.7 nM | fold change of KD against the unhumanized antibody [15]: ≤ 2 fold | Kd [9]: 0.421 nM | koff [9]: 0.000138 s⁻¹ | kon [9]: 328000 M⁻¹ s⁻¹
B3: Hu 2-3 (antibody, V domains shown)
VH: QVQLVQSGAEVKKPGASVKVSCKASGYTFTSYWMNWVRQAPGQGLEWIGMIHPNSDITNYNEKFKSRVTMTVDTSTSTVYMELSSLRSEDTAVYYCARHGRFDYWGQGTTVTVSS
VL: DIQMTQSPSSLSASVGDRVTITCRASQDIGSSLNWLQQKPGKAPKRLIYATSSLDAGVPKRFSGSGSGTDYTLTISSLQPEDFATYYCLQYASSPFTFGGGTKLEIK
notes: Humanized form of 2-3; also called humanized 2-3

fold change of KD against the unhumanized antibody [16]: ≤ 2 fold | Kd [9]: 3.83 nM | koff [9]: 7.05e-05 s⁻¹ | kon [9]: 18400 M⁻¹ s⁻¹
B4: Hu 2-5 (antibody, V domains shown)
VH: QVQLQESGPGLVKPSQTLSLTCTVSGYSITSDDYWNWIRQPPGKGLEWIGYISYEGSNNYNPSLKNRVTISRDTSKNQFSLKLSSVTAADTAVYYCARLGYPAMDAWGQGTLVTVSS
VL: DIQMTQSPSSLSASVGDRVTITCKASQDINSYLSWFQQKPGKAPKSLIYRANRLVDGVPSRFSGSGSGTDYTLTISSLQPEDFATYYCLQYDEFPWTFGGGTKLEIK
notes: Humanized form of 2-5; also called humanized 2-5
